From patent publication US20070042353

Key:
[1] = biological target: HCV NS5B570 (Hepatitis C virus (BK strain, genotype 1b)) (UniProt P26663); settings: [3H]UTP incorporation, 5 mM MgCl2, 50 mM NaCl, pH 7.5, 25 C, 90 min
[2] = biological target: HCV NS5B531 (Hepatitis C virus (BK strain, genotype 1b)) (UniProt P26663); settings: [3H]UTP incorporation, 5 mM MgCl2, 50 mM NaCl, pH 7.5, 25 C, 90 min
[3] = biological target: HCV NS5B591 (full length) (Hepatitis C virus (BK strain, genotype 1b)) (UniProt P26663); settings: reference enzyme; [3H]UTP incorporation, 5 mM MgCl2, 50 mM NaCl, pH 7.5, 25 C, 90 min
[4] = biological target: HCV NS5B544 (Hepatitis C virus (BK strain, genotype 1b)) (UniProt P26663); settings: [3H]UTP incorporation, 5 mM MgCl2, 50 mM NaCl, pH 7.5, 25 C, 90 min
[5] = biological target: HCV NS5B536 (Hepatitis C virus (BK strain, genotype 1b)) (UniProt P26663); settings: [3H]UTP incorporation, 5 mM MgCl2, 50 mM NaCl, pH 7.5, 25 C, 90 min
[6] = biological target: HCV NS5B552 (Hepatitis C virus (BK strain, genotype 1b)) (UniProt P26663); settings: [3H]UTP incorporation, 5 mM MgCl2, 50 mM NaCl, pH 7.5, 25 C, 90 min

For “HCV NS5B 3' end + 3'UTR (polyU and 3'X) template RNA, about 450 nt”, which activity [1] is on record?
The activity was 3 % of NS5B591.

And the activity [2]?
Its activity is 2150 % of NS5B591.

And the activity [3]?
Its activity is 100 % of NS5B591.

And the activity [4]?
The activity was 2010 % of NS5B591.

What about the activity [5] of the same substance?
The activity was 2110 % of NS5B591.

What about the activity [6] of the same substance?
Its activity is 147 % of NS5B591.
